The results in this text go back to paper PMC12152876 (The Journal of Biological Chemistry, 2025).

This series deals with the molecule itself. The series is described as follows: cross-linking.

B1: Ebola virus nucleoprotein (NP), wild type, expressed for DSP cross-linking (natural protein)
chain: MDSRPQKIWMAPSLTESDMDYHKILTAGLSVQQGIVRQRVIPVYQVNNLEEICQLIIQAFEAGVDFQESADSFLLMLCLHHAYQGDYKLFLESGAVKYLEGHGFRFEVKKRDGVKRLEELLPAVSSGKNIKRTLAAMPEEETTEANAGQFLSFASLFLPKLVVGEKACLEKVQRQIQVHAEQGLIQYPTAWQSVGHMMVIFRLMRTNFLIKFLLIHQGMHMVAGHDANDAVISNSVAQARFSGLLIVKTVLDHILQKTERGVRLHPLARTAKVKNEVNSFKAALSSLAKHGEYAPFARLLNLSGVNNLEHGLFPQLSAIALGVATAHGSTLAGVNVGEQYQQLREAATEAEKQLQQYAESRELDHLGLDDQEKKILMNFHQKKNEISFQQTNAMVTLRKERLAKLTEAITAASLPKTSGHYDDDDDIPFPGPINDDDNPGHQDDDPTDSQDTTIPDVVVDPDDGSYGEYQSYSENGMNAPDDLVLFDLDEDDEDTKPVPNRSTKGGQQKNSQKGQHIEGRQTQSRPIQNVPGPHRTIHHASAPLTDNDRRNEPSGSTSPRMLTPINEEADPLDDADDETSSLPPLESDDEEQDRDGTSNRTPTVAPPAPVYRDHSEKKELPQDEQQDQDHTQEARNQDSDNTQSEHSFEEMYRHILRSQGPFDAVLYYHMMKDEPVVFSTSDGKEYTYPDSLEEEYPPWLTEKEAMNEENRFVTLDGQQFYWPVMNHKNKFMAILQHHQ
As usually defined, the stoichiometry N is the number of molecules, sites or subunits per partner or assembly. In the case of B1, the “stoichiometry N” value stood at 2.
